Laboratory results: patent US20260234247A1 (published 2026)

What was measured:
Biotinylated LILRB1 [1] = molecular target: T1, Biotinylated LILRB1 (UniProt Q8NHL6 24-458, limits assumed, biotinylated (sites not given)); test: epitope binning ELISA, coated 1 ug/ml; competitor LK-RB1-33 at 20 ug/ml
Biotinylated LILRB1 [2] = molecular target: T1, Biotinylated LILRB1; test: epitope binning ELISA, coated 1 ug/ml; competitor LK-RB1-16 at 20 ug/ml
Procedure: (§1) Binding epitope of a subset of anti-LILRB1 and anti-LILRB2 antibodies was analyzed by epitope binning ELISA. Briefly, a panel of testing antibodies were coated onto ELISA plate. 50 ul/well Biotinylated LILRB1 or LILRB2 and 50 ul/well of competing antibodies were added to the coated plate and incubated at 37° C. for 1 hour. After Streptavidin-HRP (1:5000) incubation and TMB development, the plates were read at 450 nm using Molecular device spectra max plus384.

human LILRB1 = molecular target: T2, human LILRB1 (human, UniProt Q8NHL6 24-458, limits assumed); test: Octet off-rate ranking;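 note: antibody dissociation rate constants against cynomolgus LILRB2 plus human LILRB1, LILRB2, LILRA1 and LILRA2, measured on an Octet instrument to rank binding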
T2 construct: also called hLILRB1
T2 sequence (Q8NHL6 24-458 limits assumed): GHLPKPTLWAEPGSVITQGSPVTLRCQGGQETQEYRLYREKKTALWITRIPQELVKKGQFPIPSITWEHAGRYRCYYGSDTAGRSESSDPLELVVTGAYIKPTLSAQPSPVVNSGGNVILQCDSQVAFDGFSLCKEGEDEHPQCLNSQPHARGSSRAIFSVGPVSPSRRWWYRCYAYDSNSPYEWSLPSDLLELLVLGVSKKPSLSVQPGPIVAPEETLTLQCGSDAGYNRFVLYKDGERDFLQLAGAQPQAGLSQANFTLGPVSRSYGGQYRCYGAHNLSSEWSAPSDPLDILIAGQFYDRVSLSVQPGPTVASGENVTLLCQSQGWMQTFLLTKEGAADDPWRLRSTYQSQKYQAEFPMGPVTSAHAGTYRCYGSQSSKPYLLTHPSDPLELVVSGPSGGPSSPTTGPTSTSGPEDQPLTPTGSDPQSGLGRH
Source text: Binding affinity of anti-LILRB1 and anti-LILRB2 antibodies against human LILRB1, LILRB2, LILRA1, LILRA2 and cynomolgus LILRB2 was ranked by measuring dissociation rate constant (Kdis) using the Octet system.

Biotinylated LILRB1 [3] = molecular target: T1, Biotinylated LILRB1; test: epitope binning ELISA, coated 1 ug/ml; competitor LK-RB1-12 at 20 ug/ml
Procedure: as §1

Biotinylated LILRB1 [4] = molecular target: T1, Biotinylated LILRB1; test: epitope binning ELISA, coated 1 ug/ml; competitor LK-RB1-31 at 20 ug/ml
Procedure: as §1

Biotinylated LILRB1 [5] = molecular target: T1, Biotinylated LILRB1; test: epitope binning ELISA, coated 1 ug/ml; competitor LK-RB1-47 at 20 ug/ml
Procedure: as §1

Biotinylated LILRB1 [6] = molecular target: T1, Biotinylated LILRB1; test: epitope binning ELISA, coated 1 ug/ml; competitor hz73D1.v1 at 20 ug/ml
Procedure: as §1

Biotinylated LILRB1 [7] = molecular target: T1, Biotinylated LILRB1; test: epitope binning ELISA, coated 1 ug/ml; competitor 15G8 at 20 ug/ml
Procedure: as §1

Biotinylated LILRB1 [8] = molecular target: T1, Biotinylated LILRB1; test: epitope binning ELISA, coated 1 ug/ml; competitor LK-RB1-9 at 20 ug/ml
Procedure: as §1

[9] = molecular target: T3, Rhesus LILRB1 (F7H3G7) on CHOK1 cells (rhesus macaque); test: flow cytometry on CHOK1-rhesus LILRB1 (F7H3G7) cells
T3 construct: whole, on cells; also called CHOK1-Rhesus LILRB1 (F7H3G7)

Biotinylated LILRB2 [10] = molecular target: T4, Biotinylated LILRB2 (UniProt Q8N423 22-460, limits assumed, biotinylated (sites not given)); test: epitope binning ELISA; coated antibody 1 ug/ml, biotinylated LILRB2; competitor LK-RB2-15 at 20 ug/ml
T4 construct: also called biotinylated-LILRB2 protein
T4 sequence (Q8N423 22-460 limits assumed): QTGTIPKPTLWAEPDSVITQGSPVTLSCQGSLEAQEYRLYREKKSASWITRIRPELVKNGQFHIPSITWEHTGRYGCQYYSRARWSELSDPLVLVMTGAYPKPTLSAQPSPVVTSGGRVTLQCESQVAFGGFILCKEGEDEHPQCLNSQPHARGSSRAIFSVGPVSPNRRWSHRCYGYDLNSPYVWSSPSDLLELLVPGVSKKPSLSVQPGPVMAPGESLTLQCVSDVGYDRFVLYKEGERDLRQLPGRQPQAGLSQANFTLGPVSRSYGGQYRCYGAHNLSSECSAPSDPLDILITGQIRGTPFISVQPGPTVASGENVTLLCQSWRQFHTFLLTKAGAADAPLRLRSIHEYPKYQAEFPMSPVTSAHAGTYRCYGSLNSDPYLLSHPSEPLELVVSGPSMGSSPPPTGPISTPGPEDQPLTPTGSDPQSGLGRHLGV

Biotinylated LILRB2 [11] = molecular target: T4, Biotinylated LILRB2; test: epitope binning ELISA; coated antibody 1 ug/ml, biotinylated LILRB2; competitor J19.h1 at 20 ug/ml
Procedure: as §1

Biotinylated LILRB2 [12] = molecular target: T4, Biotinylated LILRB2; test: epitope binning ELISA; coated antibody 1 ug/ml, biotinylated LILRB2; competitor hz73D1.v1 at 20 ug/ml
Procedure: as §1

Biotinylated LILRB2 [13] = molecular target: T4, Biotinylated LILRB2; test: epitope binning ELISA; coated antibody 1 ug/ml, biotinylated LILRB2; competitor LK-RB2-2 at 20 ug/ml
Procedure: as §1

Biotinylated LILRB2 [14] = molecular target: T4, Biotinylated LILRB2; test: epitope binning ELISA; coated antibody 1 ug/ml, biotinylated LILRB2; competitor LK-RB2-3 at 20 ug/ml
Procedure: as §1

Biotinylated LILRB2 [15] = molecular target: T4, Biotinylated LILRB2; test: epitope binning ELISA; coated antibody 1 ug/ml, biotinylated LILRB2; competitor LK-RB2-14 at 20 ug/ml
Procedure: as §1

Biotinylated LILRB2 [16] = molecular target: T4, Biotinylated LILRB2; test: epitope binning ELISA; coated antibody 1 ug/ml, biotinylated LILRB2; competitor LK-RB2-24 at 20 ug/ml
Procedure: as §1

T1 sequence (Q8NHL6 24-458 limits assumed): as the sequence (Q8NHL6 24-458 limits assumed) above

Binder | Inhibition % (Biotinylated LILRB1 [1]) [%] | Inhibition % (Biotinylated LILRB1 [2]) [%] | koff (human LILRB1) [s⁻¹] | Inhibition % (Biotinylated LILRB1 [3]) [%] | Inhibition % (Biotinylated LILRB1 [4]) [%] | Inhibition % (Biotinylated LILRB1 [5]) [%] | Inhibition % (Biotinylated LILRB1 [6]) [%] | Inhibition % (Biotinylated LILRB1 [7]) [%] | Inhibition % (Biotinylated LILRB1 [8]) [%] | EC50 [9] [µM] | also measured
LK-RB1-12 (antibody, human IgG4 S228P, kappa, V domains shown) VH: QVQLQQSGTELVRPGSSVMISCKASGYAFSTYWMDWVKQRPGQGLEWIGQIYPGDGATNYNGKFKGKATLTADKSSITAYMHLSSLTSEDSAVYFCLRSRDYDGWFFDVWGAGTTVTVSS VL: DIVMTQSHKFMSTSIGDRVSITCKASQDVSSAVAWYQQKPGQSPKLLIYWASTRHTGVPDRFTGSGSGTDYTLTFSSVQAEDLALYYCQQHYSTPWTFGGGTKLEIKR | 75.3 | 88 | 0.00126 | 90.3 | 83 | 83.2 | 77.3 | -9.78 | 84.5 |  | 
LK-RB1-33 (antibody, human IgG4 S228P, kappa, V domains shown) VH: QIQLVQSGPELKKPGDTVKISCKASGYTFTSYGMNWVKQAPGEGLKWMGWINTYSGVPTYGDDFKGRFAFSLETSASTAYLQINNLENEDTATYFCARRGRDSVVGHFDVWGTGTTVTVSS VL: DIVMTQSHKFMSTSVGDRVSITCKASQDVNTAVAWYQQKPGQSPKLLIYWASTRHTGVPDRFTGSGSGTDFTLTISSVQAEDLALYYCQQHYTIPFTFGSGTRLEIKR | 96 | 3.49 | 0.000155 | 68.8 | 4.35 | 96.5 | 88.7 | 72.2 | 94.8 |  | 
LK-RB1-58 (antibody, human IgG4 S228P, kappa, V domains shown, Anti-LILRB1 antibody) VH: QVQLKQSGPGLVQPSQSLSITCTVSGFSLTTYGVHWVRQSPGKGLEWLGVIWRGGSTDYNAAFMSRLSITKDNSKSQVFFRMNSLQADDTARYYCAKNSLYYGSSWYFDVWGTGTTVTVSS VL: QIVLSQSPAILSASPGEKVTMTCRASSSVSFMHWYQQKPGSSPKPWIYATSNLASGVPARFSGSGSGTSYSLTISRVEAEDAATYYCQQWSSNPPTFGGGTKLEIKR |  |  |  |  |  |  |  |  |  | 17.9 | 
LK-RB2-14 (antibody, human IgG4 S228P, kappa, V domains shown, Anti-LILRB2 antibody from mouse hybridoma) VH: QVQLKQSGPGLVQPSQSLSITCTVSGFSLTSYGVHWVRQSPGKGLEWLGVIWRGGSTDYNAAFMSRLSITKDNSKSQVFFKMNSLQADDTAIYYCAKNEGDSTVVAWYFDVWGTGTTVTVSS VL: DIQMTQTTSSLSASLGDRVTISCSASQGISNYLNWFQQKPDGTVKLLIYYTSSLHSGVPSRFSGSGSGTDYSLTISNLEPEDIATYYCQQYSKLPLTFGAGTKLELKR |  |  |  |  |  |  |  |  |  |  | Inhibition % (Biotinylated LILRB2 [10]): 91.1%; Inhibition % (Biotinylated LILRB2 [11]): 77.4%; Inhibition % (Biotinylated LILRB2 [12]): 92.7%; Inhibition % (Biotinylated LILRB2 [13]): 97.7%; Inhibition % (Biotinylated LILRB2 [14]): 29.8%; Inhibition % (Biotinylated LILRB2 [15]): 90.6%; Inhibition % (Biotinylated LILRB2 [16]): 94.3%
LK-RB1-31 (antibody, human IgG4 S228P, kappa, V domains shown) VH: QVQLKESGPGLVAPSQSLSITCTVSGFSLTSYGVSWVRQPPGKGLEWLGIIWGDGSTNYHSALKSRLSISKDNSKSQVFLKLNSLQTEDTATYYCAKPNWDYYAMDYWGQGTSVTVSS VL: DIQMTQTTSSLSASLGDRVTISCRASQDISNYLNWYLQKPDGTVKLLIYYTSRLHSGVPSRFSGSGSGTDYSLTISNLEQEDIATYFCQQGITLPCTFGGGTKLEIKR | 1.14 | 75.7 | 6.77e-05 | 87.4 | 64.4 | 5.86 | 54.1 | -1.73 | 10.5 |  | 
LK-RB1-47 (antibody, human IgG4 S228P, kappa, V domains shown) VH: QIQLVQSGPELKKPGETVKISCKASGYTFTTYGMSWVKQAPGKGLKWMGWINTYSGVPTYTDDFKGRFAFSVETSASTAYLQINNLKNEDTATYFCARRERDFYGNIFFPYWGQGSLVTVSA VL: DIQMTQTTSSLSASLGDRVTISCRASQDISNYLNWYQQKPDGTVKLLIYYTSRIHSGVPSRFSGSGSGTDFSLTISNLDQEDIATYFCQQGHTLPWTFGGGTKVEIKR | 21.7 | 1.24 | 0.000828 | 82.1 | 0.59 | 89.8 | 74.8 | 5.8 | 31.8 |  | 
LK-RB1-16 (antibody, human IgG4 S228P, kappa, V domains shown) VH: QVQLKESGPGLVAPSQSLSITCTVSGFSLISNAISWVRQPPGKGLEWLGVIWGDGNTIYHSALRSRLTISKDNSKSQVFLKLNSLQIDDTATYYCAKANWDGYYFDYWGQGTTLTVSS VL: DIQMNQSPSSLSASLGDTITITCHASQSVDFWLNWYQQKPGNIPKLLISKASNLHTGVPSRFSGSGSGTTFTLTISSLQPEDIATYYCQQGQSYPLTFGSGTKLEIKR | -0.04 | 42.9 | 5.92e-05 | 12.5 | 3.39 | 2.23 | 1.48 | 0.37 | 0.98 |  | 
hz73D1.v1 (antibody, human IgG4 S228P, kappa, V domains shown) VH: QVQLVQSGAEVKKPGASVKVSCKASGYTFTDYYINWVRQAPGQGLEWMGNVNPNDGGTTYNQKFKGRVTMTTDTSTSTAYMELRSLRSDDTAVYYCARREIYFYGTIYYYAMDYWGQGTLVTVSS VL: DIQLTQSPSFLSASVGDRVTITCRASESVDYYGNSFMYWYQQKPGKAPKLLIYFASNLESGVPSRFSGSGSGTEFTLTISSLQPEDFATYYCQQNNEDPWTFGGGTKVEIKR |  |  |  |  |  |  |  |  |  | 0.00125 | 
LK-RB1-51 (antibody, human IgG4 S228P, kappa, V domains shown, Anti-LILRB1 antibody) VH: QVQIQQSGAELVKPGASVKLSCKASGYTFTEFPIHWIKQRSGQGLEWIGWFYPGSDNMNYNEKFKDKATLTADKSSSTVYMELSRLTSEDSAVYFCARHENAYFYAMDYWGQGTSVTVSS VL: ENVLTQSPAIMSASLGEKVTMSCRASSSVNYMYWYQQKSDASPKIWIYYTSNLAPGVPARFSGSGSGNSYSLTISSMEGEDAATYYCQQFTSSPFTFGTGTKLEIKR |  |  |  |  |  |  |  |  |  | 26.6 | 
LK-RB1-54 (antibody, human IgG4 S228P, kappa, V domains shown, Anti-LILRB1 antibody) VH: DVQLQESGPGLVKPSQSLSLTCSVTGYSITSGFYWNWIRQFPGNKLEWMGHISYDGTNNYNPSLKNRISITRDTSKNLFFLKLNSVTTEDTATFHCARGGYGGSYGFDYWGQGTTLTVSS VL: ENVLTQSPAIMSASLGEKVTMSCRASSSVNYMYWYQQKSDASPKLWIYYTSNLAPGVPVRFSGSGSGNSYSLTISSMEGEDAATYYCQQFTSSPWTFGGGTKLEIKR |  |  |  |  |  |  |  |  |  | 24.2 | 
LK-RB2-15 (antibody, human IgG4 S228P, kappa, V domains shown, Anti-LILRB2 antibody from mouse hybridoma) VH: QIQLVQSGPELKKPGETVKISCKASGYTFTTYGMSWVKQAPGKGLKWMGWINVYSGVPTYADDFKGRFAFSLEISASTAYLQINNLKDEDTATYFCARRKDYSGHCFDYWGQGTTLTVSS VL: DIVLTQSPASLAVSLGQRATFSCRASESVDTYGISFMHWYQQKPGQPPKLLIYRASNLESGIPARFSGSGSRTDFTLTINPVETDDVATYYCQQSKKEPYTFGGGTKLEIKR |  |  |  |  |  |  |  |  |  |  | Inhibition % (Biotinylated LILRB2 [10]): 94.3%; Inhibition % (Biotinylated LILRB2 [11]): 8%; Inhibition % (Biotinylated LILRB2 [12]): 15.1%; Inhibition % (Biotinylated LILRB2 [13]): 47.1%; Inhibition % (Biotinylated LILRB2 [14]): 22.1%; Inhibition % (Biotinylated LILRB2 [15]): 85.4%; Inhibition % (Biotinylated LILRB2 [16]): 96.8%
LK-RB2-3 (antibody, human IgG4 S228P, kappa, V domains shown, Anti-LILRB2 antibody from mouse hybridoma) VH: QLQLQQSDAELVKPGASVKISCKVSGYSFTDHTIHWMKQRPEQGLEWIGYIYPRDGSTKENEKFTGKATLTADKSSSTAYMQLTSLTSEDSAVYFCTGSGFDYWGQGTSLTVSS VL: DIKMTQSPSSMYASLGERVTITCKASQDIKSYLSWFQQKPGKSPKTLIYRANRLVDGVPSRFSGSGSGQDYSLTINSLEYEDMEIYYCLQYDEFPYTFGGGTKLEIKR |  |  |  |  |  |  |  |  |  |  | Inhibition % (Biotinylated LILRB2 [10]): 5%; Inhibition % (Biotinylated LILRB2 [11]): 9.71%; Inhibition % (Biotinylated LILRB2 [12]): 33.7%; Inhibition % (Biotinylated LILRB2 [13]): 96.9%; Inhibition % (Biotinylated LILRB2 [14]): 96.7%; Inhibition % (Biotinylated LILRB2 [15]): 24.9%; Inhibition % (Biotinylated LILRB2 [16]): 32.2%
